# Laboratory results reported in article PMC3117075 (2011).
# Non-standard residues stand in square brackets, D forms with d. pT = C[C@@H](OP(=O)(O)O)[C@H](N)C(=O)O; pS = N[C@@H](COP(=O)(O)O)C(=O)O
# T1: Ac-pSPTF-COOH (peptide 18) (Homo sapiens, UniProt Q9BX63, SMILES CC(=O)N[C@@H](COP(=O)(O)O)C(=O)N1CCC[C@H]1C(=O)N[C@H](C(=O)N[C@@H](Cc1ccccc1)C(=O)O)[C@@H](C)O)
# T1 chain: Ac-[pS]PTF-OH
# T2: Ac-pSPSF-CONH2 (peptide 8) (Homo sapiens, UniProt Q9BX63, SMILES CC(=O)N[C@@H](COP(=O)(O)O)C(=O)N1CCC[C@H]1C(=O)N[C@@H](CO)C(=O)N[C@@H](Cc1ccccc1)C(N)=O)
# T2 chain: Ac-[pS]PSF-NH2
# T3: Ac-pSPPF-CONH2 (peptide 15) (Homo sapiens, UniProt Q9BX63, SMILES CC(=O)N[C@@H](COP(=O)(O)O)C(=O)N1CCC[C@H]1C(=O)N1CCC[C@H]1C(=O)N[C@@H](Cc1ccccc1)C(N)=O)
# T3 chain: Ac-[pS]PPF-NH2
# T4: Ac-pSPVF-CONH2 (peptide 7) (Homo sapiens, UniProt Q9BX63, SMILES CC(=O)N[C@@H](COP(=O)(O)O)C(=O)N1CCC[C@H]1C(=O)N[C@H](C(=O)N[C@@H](Cc1ccccc1)C(N)=O)C(C)C)
# T4 chain: Ac-[pS]PVF-NH2
# T5: Ac-pSPAF-CONH2 (peptide 6) (Homo sapiens, UniProt Q9BX63, SMILES CC(=O)N[C@@H](COP(=O)(O)O)C(=O)N1CCC[C@H]1C(=O)N[C@@H](C)C(=O)N[C@@H](Cc1ccccc1)C(N)=O)
# T5 chain: Ac-[pS]PAF-NH2
# T6: Ac-pSPVF-COOH (peptide 19) (Homo sapiens, UniProt Q9BX63, SMILES CC(=O)N[C@@H](COP(=O)(O)O)C(=O)N1CCC[C@H]1C(=O)N[C@H](C(=O)N[C@@H](Cc1ccccc1)C(=O)O)C(C)C)
# T6 chain: Ac-[pS]PVF-OH
# T7: Ac-pSPTF-CONH2 (peptide 1) (Homo sapiens, UniProt Q9BX63, SMILES CC(=O)N[C@@H](COP(=O)(O)O)C(=O)N1CCC[C@H]1C(=O)N[C@H](C(=O)N[C@@H](Cc1ccccc1)C(N)=O)[C@@H](C)O)
# T7 chain: Ac-[pS]PTF-NH2
# T8: Ac-pSATF-CONH2 (peptide 5) (Homo sapiens, UniProt Q9BX63, SMILES CC(=O)N[C@@H](COP(=O)(O)O)C(=O)N[C@@H](C)C(=O)N[C@H](C(=O)N[C@@H](Cc1ccccc1)C(N)=O)[C@@H](C)O)
# T8 chain: Ac-[pS]ATF-NH2
# T9: Ac-EPTF-CONH2 (peptide 2) (Homo sapiens, UniProt Q9BX63)
# T9 chain: Ac-EPTF-NH2
# T10: Ac-pTPTF-CONH2 (peptide 4) (Homo sapiens, UniProt Q9BX63, SMILES CC(=O)N[C@H](C(=O)N1CCC[C@H]1C(=O)N[C@H](C(=O)N[C@@H](Cc1ccccc1)C(N)=O)[C@@H](C)O)[C@@H](C)OP(=O)(O)O)
# T10 chain: Ac-[pT]PTF-NH2
# Assays:
# [1] = target: T1, Ac-pSPTF-COOH (peptide 18); experiment: ITC
# [2] = target: T1, Ac-pSPTF-COOH (peptide 18); experiment: fluorescence polarization competition
# [3] = target: T2, Ac-pSPSF-CONH2 (peptide 8); experiment: fluorescence polarization competition
# [4] = target: T3, Ac-pSPPF-CONH2 (peptide 15); experiment: fluorescence polarization competition
# [5] = target: T4, Ac-pSPVF-CONH2 (peptide 7); experiment: fluorescence polarization competition
# [6] = target: T5, Ac-pSPAF-CONH2 (peptide 6); experiment: fluorescence polarization competition
# [7] = target: T6, Ac-pSPVF-COOH (peptide 19); experiment: fluorescence polarization competition
# [8] = target: T7, Ac-pSPTF-CONH2 (peptide 1); experiment: fluorescence polarization competition
# [9] = target: T8, Ac-pSATF-CONH2 (peptide 5); experiment: fluorescence polarization competition
# [10] = target: T9, Ac-EPTF-CONH2 (peptide 2); experiment: fluorescence polarization competition
# [11] = target: T10, Ac-pTPTF-CONH2 (peptide 4); experiment: fluorescence polarization competition
Kd [1] [µM],IC50 [2] [µM],IC50 [3] [µM],IC50 [4] [µM],IC50 [5] [µM],IC50 [6] [µM],IC50 [7] [µM],IC50 [8] [µM],IC50 [9] [µM],IC50 [10] [µM],IC50 [11] [µM],Binder
0.19,1,30.1,> 250,3.2,35,1.6,,,,,BRCA1 BRCT (protein) STERVNKRMSMVVSGLTPEEFMLVYKFARKHHITLTNLITEETTHVVMKTDAEFVCERTLKYFLGIAGGKWVVSYFWVTQSIKERKMLNEHDFEVRGDVVNGRNHQGPKRARESQDRKIFRGLEICCYGPFTNMPTDQLEWMVQLCGASVVKELSSFTLGTGVHPIVVVQPDAWTEDNGFHAIGQMCEAPVVTREWVLDSVALYQCQELDTYLI
,,,,,,,4.6,15,> 250,> 250,BRCA1 BRCT (protein) VNKRMSMVVSGLTPEEFMLVYKFARKHHITLTNLITEETTHVVMKTDAEFVCERTLKYFLGIAGGKWVVSYFWVTQSIKERKMLNEHDFEVRGDVVNGRNHQGPKRARESQDRKIFRGLEICCYGPFTNMPTDQLEWMVQLCGASVVKELSSFTLGTGVHPIVVVQPDAWTEDNGFHAIGQMCEAPVVTREWVLDSVALYQCQELDTYLIPQIP
